Source: patent US5807729A, “Metalloprotease having increased activity” (Novo Nordisk A/S, priority 1995, dated 1998)
Read-outs that look alike come from different tables or passages of the source.

Tests used:
[1] = test system: Fusarium oxysporum metalloprotease; assay: Inhibition of Fusarium metalloprotease with 1,10-phenanthroline / EDTA and reactivation with Zn2+; assay type: biochemical
Description: (§1) Metalloprotease activity is measured as released trypsin activity from pro-trypsin-like Fusarium oxysporum protease deposited at the Deutsche Sammlung von Mikroorganismen, Gottingen, Germany under the number DSM 2672, after a 30-60 min pre-incubation at 25° C. in 0.1M Tris, 2 mM CaCl2, pH 7 (at lower pH, 100 mM borate, 10 mM DMG, 2 mM CaCl2 is used).
(§2) Metalloproteases contain a catalytic zinc metal center which participates in the hydrolysis of the peptide backbone. The active zinc center differentiates these proteases from calpains whose activities are dependent upon the presence of calcium. Confirmation of a protease as a metallo-protease is loss of proteolytic activity accomplished by removal of the zinc center with 1,10-phenanthroline (1 mM) followed by titration with Zn^2+ (0.1-100 μM) to restore full activity.
(§3) However, when combined the metalloprotease cleaves recombinant pro-trypsin-like Fusarium oxysporum protease disclosed, supra to yield the active tryptic protease. Metalloprotease activity is halted upon the addition of 1 mM 1,10-phenanthroline (Table 1).

[2] = test system: Bacillus stearothermophilus thermolysin; assay: Inhibitor analysis of B.s. thermolysin; assay type: biochemical; conditions: for type of inhibition, B.s. Thermolysin: kinetic analysis; for Ki: read-out: Inhibition Constant (Ki), B.s. Thermolysin
Description: (§4) Other metalloprotease inhibitors are utilized to further differentiate the p45 metalloprotease from the Bacillus thermolysins. Inhibition constants for 1,10-phenanthroline, phosphoramidon, and CdCl2 are determined to be 130 uM, 1 uM, and 67 uM against the p45 Metalloprotease (Table 3). Inhibition constants for 1,10-phenanthroline, phosphoramidon, and CdCl2 are 85 uM, 26 uM, and 2 uM against the Bacillus stearothermophilus thermolysin. […] It is of interest to note that phophoramidon is an effective inhibitor of many bacterial metallo-endopeptidases but few of mammalian origin. Also, it is interesting that CdCl2 is found to be such an effective inhibitor of metalloproteases. No evidence of CdCl2 inhibition of metalloproteases has been found in the literature.

p45 Metalloprotease = p45 Metalloprotease (Fusarium oxysporum, UniProt M1UZ70); assay: Inhibitor analysis of the p45 metalloprotease; assay type: biochemical; set-up: precursor 632 aa (18 signal, 226 pro); native or A. oryzae-expressed with same N-terminus; conditions: for type of inhibition, p45 Maturase: kinetic analysis
Description: as §4

FTC-labeled casein [3] = molecular target: FTC-labeled casein
succinylated casein [4] = molecular target: succinylated casein
[5] = molecular target: pro-trypsin-like Fusarium oxysporum protease (Fusarium oxysporum) (UniProt P35049)
succinylated casein [6] = molecular target: succinylated casein; remark: listed apart in the source
[7] = test system: pro-trypsin-like Fusarium oxysporum protease; assay: Proteolytic enzyme assay: tryptic activity released from pro-trypsin-like protease, L-BAPNA, 405 nm; assay type: biochemical
Description: as §1, §2, §3

FTC-labeled casein [8] = assay: Thermal stability profile, FTC-casein hydrolysis; assay type: biochemical; conditions: 15 minutes at various temperatures, Universal buffer pH 7; FIG. 9
Description: Purified p45 metalloprotease or B.t. thermolysin (Boehringer Mannheim) (50 microliters, 0.1 mg/ml) are incubated at various temperatures for 15-minutes in Universal buffer, pH 7. Ten microliters of sample are then added to 30 microliters of Universal pH buffer (pH 7) and 20 microliters of FTC-labeled casein and are incubated at 37° C. for 1 hour. 150 microliters of 5% TCA is added to acidify and precipitate casein (1 hour at room temperature). […] Samples are then analyzed on the fluorimeter (slit width=2.5 nm; excitation freq.=490 nm; emission freq.=525 nm; integration time=2 sec).

succinylated casein [9] = assay: Casein hydrolysis, succinylated casein assay (QuantiCleave, BCA, 600 nm); assay type: biochemical; conditions: for maximum absorbance, casein hydrolysis: pH 6.5, room temperature, 40 minutes, FIG. 8
Description: 400 ul of casein solution (Pierce) is added to small test tubes along with 100 ul of protease. The tubes are vortexed and incubated at room temperature for 40 minutes. The incubation (and assay) buffer is 0.1 M borate, 2 mM CaCl2, and 10 mM dimethylglutarate, pH 6.5. At the end of the incubation, 60 microliters of trichloroacetic acid (100% w/v) is added, and the tubes are vortexed and centrifuged for 1 minute at 5000×g. 20 microliters of the resulting supernatant is placed into a microtiter plate well with 200 microliters of the BCA working reagent (Pierce). The plates are then vortexed and incubated another 30 minutes, then read at 600 nm using a Biomek 1000 microtiter plate reader.
400 microliters of casein solution (Pierce) are added to small test tubes along with 100 microliters of protease in buffer "A" (0.1M borate, 2 mM CaCl2 and 10 mM dimethylglutaric acid). At the end of the incubation, 60 microliters of trichloroacetic acid (100% w/v) is added, and the tubes are vortexed and centrifuged for 1 minute at 5000×g. 20 microliters of the resulting supernatant is placed into a microtiter plate well with 200 microliters of the BCA working reagent (Pierce). The plates are then vortexed and incubated another 30 minutes, then read at 600 nm using a Biomek 1000 microtiter plate reader.

[10] = test system: pro-trypsin-like F. oxysporum protease; assay: Processing of pro-trypsin-like F. oxysporum protease to active trypsin-like protease
Description: Activatable pro-trypsin-like F. oxysporum protease is determined in microtiter wells as released trypsin-like F. oxysporum protease (tryptic) activity from pro-trypsin-like F. oxysporum protease after a 40 minute pre-incubation at room temperature with purified Fusarium oxysporum metalloprotease (approximately 6 ug).
Processed pro-trypsin-like F. oxysporum protease(i.e. mature trypsin-like F. oxysporum protease) activity is determined directly from microtiter plates containing the pre-incubated metalloprotease/pro-trypsin-like F. oxysporum protease cocktail (total volume=100 microliters), and 100 microliters of substrate (87 mg/ml.L-BAPNA stock in DMSO diluted 50-fold in sample buffer). Again, active trypsin-like F. oxysporum protease is determined as an increase in absorbance at 405 nm immediately after L-BAPNA addition.
Purified pro-trypsin-like F. oxysporum protease is added to fresh A. oryzae fermentation broths containing the recombinant p45 metalloprotease (approximately 90 mg/L) and incubated for either 1, 2, or 3 hours at room temperature. Levels of pro-trypsin-like F. oxysporum protease in the incubation mixtures range from 100 ug/ml to 13 mg/ml.
Purified pro-trypsin-like F. oxysporum protease (100 ug/ml) is added to various amounts of either purified recombinant p45 metalloprotease or purified B.s. metalloprotease.

[11] = test system: Ac-Pro-Leu-Gly[2-mercapto-4-methyl-pentanoyl]-Leu-Gly-OEt; assay: Hydrolysis of the thermolytic merc-peptide substrate (Ellman's reagent, 405 nm); assay type: biochemical
Description: The thermolytic substrate Ac-Pro-Leu-Gly[2-mercapto-4-methyl-pentanoyl]-Leu-Gly-OEt (i.e. the merc-peptide) is also used to further characterize the p45 metalloprotease and B.t. thermolysin.
Reaction mixtures contain 100 microliters of Ac-Pro-Leu-Gly[2-mercapto-4-methyl-pentanoyl]-Leu-Gly-OEt (1 mM, and 1 mM Ellman's reagent) and 100 microliters of either B.t. thermolysin or purified p45 metalloprotease (0-3 ug/ml) in sample buffer.

FTC-labeled casein [12] = assay: Protease analysis using FTC-labeled casein; assay type: biochemical
Description: Samples are incubated at room temperature for 30 minutes.

[13] = test system: succinyl-Ala-Ala-Ala-p-nitroanilide; assay: Hydrolysis of succinyl-Ala-Ala-Ala-p-nitroanilide; assay type: biochemical
Description: Both p45 metalloprotease and a neutral zinc endopeptidase secreted by Flavobacterium meningosepticum poorly hydrolyze the substrate N-[3-(2--furyl)acryloyl]-Leu-Gly-NH2. However, the neutral zinc endopeptidase secreted by Flavobacterium meningosepticum will hydrolyze the vertebrate elastase substrate succinyl-Ala-Ala-Ala-p-nitroanilide, a substrate that thermolysin cannot hydrolyze (Table 2). Therefore, succinyl-Ala-Ala-Ala-p-nitroanilide hydrolysis by the p45 metalloprotease is investigated. […] This effect further differentiates the p45 metalloprotease from other existing metalloproteases.

[14] = test system: FAGLA: N-(3-[2-Furyl]Acryloyl)-Gly-Leu amide; assay: FAGLA hydrolysis (345 nm); assay type: biochemical
Description: The thermolytic substrate FAGLA: N-(3-[2-Furyl]Acryloyl)-Gly-Leu amide is used to further characterize the p45 metalloprotease and B.t. thermolysin. Reaction mixtures contain 100 microliters of N-(3-[2-Furyl]Acryloyl)-Gly-Leu amide (FAGLA) (2 mM) and 100 microliters of various concentrations of either thermolysin (Boehringer Mannheim) or purified p45 metalloprotease. Thermolytic activity is determined as a decrease in absorbance at 345 nm on the recording spectrometer for one minute(Shimadzu, UV160U). The linear range of the assay for thermolysin is 10-500 ug/ml thermolysin in the assay mix.

O=C(O)CN(CCN(CC(=O)O)CC(=O)O)CC(=O)O [EDTA]
metalloprotease activity upon addition of the inhibitor ([1]; inhibitor 1 mM): Analogous results

[Cl][Cd][Cl] [CdCl2]
type of inhibition, B.s. Thermolysin [2]: Competitive | Ki [2]: 2 µM | type of inhibition, p45 Maturase (p45 Metalloprotease): Noncompetitive | Ki (p45 Metalloprotease; read-out: Inhibition Constant (Ki), p45 Maturase): 67 µM

neutral metalloprotease from Bacillus stearothermophilus (enzyme)
Specific Activity (fluorescence released from FTC-casein) (FTC-labeled casein [3]): 220 FU/min·mg | maximum absorbance, succinylated casein hydrolysis (succinylated casein [4]): 0.47 O.D. | Specific Activity (released trypsin activity, L-BAPNA) (g trypsin/min*mg) [5]: 0.018

[Zn+2] [Zn^2+]
reactivation of the 1,10-phenanthroline-inhibited Fusarium metalloprotease ([1]; addition of 1 mM Zn2+): full reactivation

p45 metalloprotease from Fusarium oxysporum (enzyme)
Specific Activity (fluorescence released from FTC-casein) (FTC-labeled casein [3]): 170 FU/min·mg | maximum absorbance, succinylated casein hydrolysis (succinylated casein [4]): 0.3 O.D | Specific Activity (released trypsin activity, L-BAPNA) (g trypsin/min*mg) [5]: 1.2

CC(C)C[C@H](NP(=O)(O)O[C@@H]1O[C@@H](C)[C@H](O)[C@@H](O)[C@H]1O)C(=O)N[C@@H](Cc1c[nH]c2ccccc12)C(=O)O [phosphoramidon]
type of inhibition, B.s. Thermolysin [2]: Noncompetitive | Ki [2]: 26 µM | Ki (p45 Metalloprotease): 1 µM | type of inhibition, p45 Maturase (p45 Metalloprotease): Noncompetitive

dispase (enzyme)
maximum absorbance, succinylated casein hydrolysis (succinylated casein [6]): 0.47 absorbance

B1: Thermolysin from Bacillus thermoproteolyticus (enzyme)
chain: ITGTSTVGVGRGVLGDQKNINTTYSTYYYLQDNTRGNGIFTYDAKYRTTLPGSLWADADNQFFASYDAPAVDAHYYAGVTYDYYKNVHNRLSYDGNNAAIRSSVHYSQGYNNAFWNGSQMVYGDGDGQTFIPLSGGIDVVAHELTHAVTDYTAGLIYQNESGAINEAISDIFGTLVEFYANKNPDWEIGEDVYTPGISGDSLRSMSDPAKYGDPDHYSKRYTGTQDNGGVHINSGIINKAAYLISQGGTHYGVSVVGIGRDKLGKIFYRALTQYLTPTSNFSQLRAAAVQSATDLYGSTSQEVASVKQAFDAVGVK
maximum absorbance, succinylated casein hydrolysis (succinylated casein [6]): 0.47 absorbance

B2: Pro-trypsin-like F. oxysporum protease: recombinant proenzyme form of the trypsin-like F. oxysporum protease (protein)
chain: APQEIPNIVGGTSASAGDFPFIVSISRNGGPWCGGSLLNANTVLTAAHCVSGYAQSGFQIRAGSLSRTSGGITSSLSSVRVHPSYSGNNNDLAILKLSTSIPSGGNIGYARLAASGSDPVAGSSATVAGWGATSEGGSSTPVNLLKVTVPIVSRATCRAQYGTSAITNQMFCAGVSSGGKDSCQGDSGGPIVDSSNTLIGAVSWGNGCARPNYSGVYASVGALRSFIDTYA
tryptic activity of the sample alone ([7]; sample alone): do not contain any tryptic activity | Tryptic Activity ([7]; without 1,10-phenanthroline, without Zn2+): 1.26 Δ Abs/min × 10^-4

B3: thermolysin: Thermolysin from Bacillus thermoproteolyticus (B.t.), purchased from Boehringer Mannheim (protein)
chain: B1 chain
optimum temperature for hydrolysis of FTC-casein (FTC-labeled casein [8]): 80 °C | maximum absorbance, casein hydrolysis (succinylated casein [9]): ~0.47 O.D. units

B4: B.s. Thermolysin: thermolysin / neutral metalloprotease from Bacillus stearothermophilus (B.s.) (protein, UniProt P43133 236-551, looked up)
Thermolysin: B1 chain
Specific Activity, substrate pro-trypsin [10]: .018 g trypsin/min*mg | Specific Activity, substrate merc-peptide [11]: 2.9 AU/min*mg | Specific Activity, substrate Succinylated Casein (maximal level) (succinylated casein [9]): 0.47 O.D. | maximum absorbance, casein hydrolysis (succinylated casein [9]): ~0.47 O.D. units | Specific Activity, substrate FTC-Labelled Casein (FTC-labeled casein [12]): 220 FU/min*mg | Specific Activity, substrate Ala-Ala-Ala-pNA [13]: < 2 pmol pNA/min*mg | hydrolysis of succinyl-Ala-Ala-Ala-p-nitroanilide ([13]; substrate 4.4 mM in 0.1M Tris, pH 8): neither, the p45 metalloprotease nor the B.s. thermolysin would hydrolyze | Specific Activity, substrate FAGLA [14]: 227 -AU/sec*mg
